Test results taken from patent US20220251194A1 (Merck Sharp & Dohme, published 2022).

Columns and labels:
[1] = biological target: T1, recombinant human or cyno PD-1 (immobilized onto CM5 chip, Example 1) (human or cyno ( which was …, UniProt Q15116 25-167, limits assumed)); experiment: SPR (Biacore T200), PD-1 immobilized on CM5 chip, Fab as analyte
T1 construct: also called antigen
Description: Immobilization of recombinant human or cyno PD-1 onto CM5 chip: A CM5 sensor chip was activated in FC2 by 7-min. injection (10 μl/min.) of freshly prepared 1:1 50 mM NHS: 200 mM EDC. PD-1 at a concentration of 0.2 μg/ml in 10 mM sodium acetate buffer pH 5.0 was injected onto the activated chip at 5 μl/min. (HBS-EP running buffer: 10 mM HEPES, 150 mM NaCl, 3.4 mM EDTA, 0.005% surfactant P20, pH 7.4) for 120 seconds. The remaining active coupling sites were blocked with 7 min. injection of 1M ethanolamine at 10 μl/min.
Binding kinetics measurement: Various concentrations of the Fabs were injected with a flow rate of 30 μl/min for 180 seconds(s) during the association phase. The dissociation of bound antibody was monitored by flowing HBS-EP buffer over the chip surface for 600 seconds. At the end of each cycle, the sensor surfaces were regenerated by injecting regeneration buffer (10 mM glycine buffer with pH 1.7) for 180 seconds. After sensograms were corrected for signals from a reference flow, kinetics were calculated with BIACORE T 200 evaluation software ver.1.0 (Biacore, GE, USA).

[2] = biological target: T2, polyhistidine-tagged human PD-1 (hPD1-His, 98AFK) (human, UniProt Q15116 25-167, limits assumed); experiment: SPR (Biacore T200), mAb captured on anti-Fc chip, hPD1-His as analyte
T2 construct: also called human PD1-His; Human PD-1-His
T2 sequence (Q15116 25-167 limits assumed): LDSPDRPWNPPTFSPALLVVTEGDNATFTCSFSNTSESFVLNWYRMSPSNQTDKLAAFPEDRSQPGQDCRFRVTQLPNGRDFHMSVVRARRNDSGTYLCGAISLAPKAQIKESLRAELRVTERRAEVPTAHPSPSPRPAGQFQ
Description: (§1) A surface plasmon resonance (SPR)-based assay utilizing capture mode was used to determine the binding kinetics and affinities of anti-PD-1 antibodies against polyhistidine-tagged human PD-1 (hPD1-His, 98AFK). Following manufacture instructions, a series S sensor chip CM5 (GE Healthcare, BR100530) was activated using an amine-coupling kit (GE Healthcare, BR100050). Either human capture kit (anti-human Fc, 25 μg/mL, GE Healthcare, BR100839) or mouse capture kit (anti-mouse Fc, 30 μg/mL, GE Healthcare, BR100838) antibody diluted in the supplied pH 5.0, 10 mM sodium acetate buffer was immobilized onto the activated surface for 7 minutes. After immobilization, surfaces were deactivated with 1M ethanolamine/HCl (pH 8.5) for 7 minutes.
(§2) Binding kinetics were measured on a biacore T200 in HBS-EP+ (0.01 M HEPES pH 7.4, 0.15 M NaCl, 3 mM EDTA, 0.05% v/v Surfactant P20) running buffer at 25° C. Antibodies were captured either on mouse or human Fc capture surfaces at 10 μL/min flow rate. Antibodies were captured on flow cells 2, 3 and 4. Flow cell 1 was used as a reference with no antibody captured. A 6-point, 2-fold serial dilutions of the analyte 98AFK (hPD1-His), starting at 20 nM, were prepared in the running buffer (HBS-EP+). Two buffer blanks were included for double referencing. Titration series were injected for 3 minutes at 50 μl/min followed by 600 seconds of dissociation. After each cycle, surfaces were regenerated with a 30 second injection of 3M MgCl₂ at […] on the anti-human Fc chip or 180 seconds of 10 mM Glycine pH 1.7 at 10 μl/min on the anti-mouse Fc chip.
(§3) Sensorgram processing and data analysis were performed with Biacore T200 Evaluation Software Version 2.0.4 (GE Healthcare). […] Processed curves were globally fitted to a 1:1 binding model to determine the association rate constant, kₒₙ (M⁻¹s⁻¹, where “M” equals molar and “s” equals seconds) and the dissociation rate constant, koff (s⁻¹). These rate constants were used to calculate the equilibrium dissociation constant, KD (M)=koff/kₒₙ.

[3] = biological target: T2, polyhistidine-tagged human PD-1 …; experiment: SPR (Biacore T200), mAb captured on anti-Fc chip; reference Mouse 08A
Description: as §1, §2, §3

T1 sequence (Q15116 25-167 limits assumed): as above

Kd [1]	Kd [2]	KD (REF)/KD [3]	Binder
31 pM	–	–	Fab 098 (Fab, V domains shown, also called Fab98) VH: EVQLVQSGAEVKKPGASVKVSCKASGYTFTSYYLYWVRQAPGQGLEWIGGVNPSNGGTNFNEKFKSRVTLTVDTSISTAYMELSRLRSDDTAVYYCTRRLSHYDGGFDYWGQGTTVTVSS VL: DIVMTQTPLSLSVTPGQPASISCRASKSVSTSGFSYLHWYLQKPGQPPQLLIFLGKFRESGVPDRFSGSGSGTDFTLKISRVEAEDVGVYYCQHSWELPLTFGQGTKLEIKR
52 pM	–	–	Fab 104 (Fab, V domains shown) VH: EVQLVQSGAEVKKPGASVKVSCKASGYTFTSYYLYWVRQAPGQGLEWIGGVNPSNGGTNFNEKFKSRVTLTVDTSISTAYMELSRLRSDDTAVYYCTRRLSHYDGGFDYWGQGTTVTVSS VL: DIVMTQTPLSLSVTPGQPASISCRASKSVSTSGFSYLHWYLQKPGQPPQLLIFLGTHSVSGVPDRFSGSGSGTDFTLKISRVEAEDVGVYYCQHSWELPLTFGQGTKLEIKR
24 pM	–	–	Fab 100 (Fab, V domains shown) VH: EVQLVQSGAEVKKPGASVKVSCKASGYTFTSYYLYWVRQAPGQGLEWIGGVNPSNGGTNFNEKFKSRVTLTVDTSISTAYMELSRLRSDDTAVYYCTRRLSHYDGGFDYWGQGTTVTVSS VL: DIVMTQTPLSLSVTPGQPASISCRASKSVSTSGFSYLHWYLQKPGQPPQLLIFLSKYRSSGVPDRFSGSGSGTDFTLKISRVEAEDVGVYYCSQAYHLPLTFGQGTKLEIKR
–	300 pM	0.8	Humanized 08A IgG4 S61N N55E (antibody, V domains shown, IgG4 S228P / kappa; also called 50AQK; Humanized x [PD-1_H] mAb (08A/HuPD1A-11 N55E S228P) IgG4 / Kappa) VH: EVQLVQSGAEVKKPGASVKVSCKASGYTFTSYYLYWVRQAPGQGLEWIGGVNPSEGGTNFNEKFKSRVTLTVDTSISTAYMELSRLRSDDTAVYYCTRRDSNYDGGFDYWGQGTTVTVSS VL: DIVMTQTPLSLSVTPGQPASISCRASKSVSTSGFSYLHWYLQKPGQPPQLLIFLASNLESGVPDRFSGSGSGTDFTLKISRVEAEDVGVYYCQHSWELPLTFGQGTKLEIKR
–	140 pM	1.7	Humanized 08A IgG4 (antibody, V domains shown, IgG4 S228P / kappa; also called 73AGG; Humanized x [PD-1_H] mAb (08A/HuPD1A-11 S228P) IgG4 / Kappa) VH: EVQLVQSGAEVKKPGASVKVSCKASGYTFTSYYLYWVRQAPGQGLEWIGGVNPSNGGTNFSEKFKSRVTLTVDTSISTAYMELSRLRSDDTAVYYCTRRDSNYDGGFDYWGQGTTVTVSS VL: DIVMTQTPLSLSVTPGQPASISCRASKSVSTSGFSYLHWYLQKPGQPPQLLIFLASNLESGVPDRFSGSGSGTDFTLKISRVEAEDVGVYYCQHSWELPLTFGQGTKLEIKR
34 pM	–	–	Fab 099 (Fab, V domains shown) VH: EVQLVQSGAEVKKPGASVKVSCKASGYTFTSYYLYWVRQAPGQGLEWIGGVNPSNGGTNFNEKFKSRVTLTVDTSISTAYMELSRLRSDDTAVYYCTRRLSHYDGGFDYWGQGTTVTVSS VL: DIVMTQTPLSLSVTPGQPASISCRASKSVSTSGFSYLHWYLQKPGQPPQLLIFLGTHRASGVPDRFSGSGSGTDFTLKISRVEAEDVGVYYCQHSWELPLTFGQGTKLEIKR
42 pM	–	–	Fab 102 (Fab, V domains shown) VH: EVQLVQSGAEVKKPGASVKVSCKASGYTFTSYYLYWVRQAPGQGLEWIGGVNPSNGGTNFNEKFKSRVTLTVDTSISTAYMELSRLRSDDTAVYYCTRRLSHYDGGFDYWGQGTTVTVSS VL: DIVMTQTPLSLSVTPGQPASISCRASKSVSTSGFSYLHWYLQKPGQPPQLLIFLGHFASSGVPDRFSGSGSGTDFTLKISRVEAEDVGVYYCQHSWELPLTFGQGTKLEIKR
28 pM	–	–	Fab 103 (Fab, V domains shown) VH: EVQLVQSGAEVKKPGASVKVSCKASGYTFTSYYLYWVRQAPGQGLEWIGGVNPSNGGTNFNEKFKSRVTLTVDTSISTAYMELSRLRSDDTAVYYCTRRLSHYDGGFDYWGQGTTVTVSS VL: DIVMTQTPLSLSVTPGQPASISCRASKSVSTSGFSYLHWYLQKPGQPPQLLIFLGRYLQSGVPDRFSGSGSGTDFTLKISRVEAEDVGVYYCQHSWELPLTFGQGTKLEIKR
29 pM	–	–	Fab 101 (Fab, V domains shown) VH: EVQLVQSGAEVKKPGASVKVSCKASGYTFTSYYLYWVRQAPGQGLEWIGGVNPSNGGTNFNEKFKSRVTLTVDTSISTAYMELSRLRSDDTAVYYCTRRLSHYDGGFDYWGQGTTVTVSS VL: DIVMTQTPLSLSVTPGQPASISCRASKSVSTSGFSYLHWYLQKPGQPPQLLIFLGKYGASGVPDRFSGSGSGTDFTLKISRVEAEDVGVYYCAQATQLPLTFGQGTKLEIKR
–	45 pM	5.2	Humanized 08A IgG4 S61N (lot 67AGG) (antibody, IgG4 S228P / kappa; Differs from lot 98AIO by an HFR4 mutation; also called Humanized x [PD-1_H] mAb (08A/HuPD1A-11 S61N WT) S228P IgG4 / Kappa, with HFR4 mutation) heavy: not shown light: DIVMTQTPLSLSVTPGQPASISCRASKSVSTSGFSYLHWYLQKPGQPPQLLIFLASNLESGVPDRFSGSGSGTDFTLKISRVEAEDVGVYYCQHSWELPLTFGQGTKLEIKRTVAAPSVFIFPPSDEQLKSGTASVVCLLNNFYPREAKVQWKVDNALQSGNSQESVTEQDSKDSTYSLSSTLTLSKADYEKHKVYACEVTHQGLSSPVTKSFNRGEC
–	460 pM	0.5	Mouse 09A (antibody, mouse IgG1, kappa, V domains shown, Mouse IgG1 / kappa; also called 03AFN; Mouse x [PD-1_H] mAb (clone 09A) IgG1 / Kappa) VH: QVQLQQPGAELVKPGTSVKLSCKASGYTFTNYYMYWVKQRPGQGLEWIGGINPSNGGTNFNEKFKNKATLTVDSSSSTTYMQLSSLTSEDSAVYYCTRRDYRFDMGFDYWGQGTTLTVSS VL: DIVLTQSPASLAVSLGQRAAISCRASKGVSTSGYSYLHWYQQKPGQSPKLLIYLASYLESGVPARFSGSGSGTDFTLNIHPVEEEDAATYYCQHSRDLPLTFGTGTKLELKR
–	240 pM	1	Mouse 08A (REF) (antibody, mouse IgG1, kappa, V domains shown, Mouse IgG1 / kappa; also called 09AFF; parental mouse 08A antibody) VH: QVQLQQPGAELVKPGASVKLSCKASGYTFTSYYLYWMKQRPGQGLEWIGGVNPSNGGTNFSEKFKSKATLTVDKSSSTAYMQLSSLTSEDSAVYYCTRRDSNYDGGFDYWGQGTTLTVSS VL: DIVLTQSPTSLAVSLGQRATISCRASKSVSTSGFSYLHWYQQKPGQPPKLLIFLASNLESGVPARFSGSGSGTDFTLNIHPVEEEDAATYYCQHSWELPLTFGAGTKLELKR
–	5900 pM	0.03	Mouse 08A N59E (antibody, mouse IgG1, kappa, V domains shown, Mouse IgG1 / kappa; also called 39AFL; Mouse x [PD-1_H] mAb (Clone 1.08 N59E) IgG1 / Kappa) VH: QVQLQQPGAELVKPGASVKLSCKASGYTFTSYYLYWMKQRPGQGLEWIGGVNPSNGGTEFSEKFKSKATLTVDKSSSTAYMQLSSLTSEDSAVYYCTRRDSNYDGGFDYWGQGTTLTVSS VL: DIVLTQSPTSLAVSLGQRATISCRASKSVSTSGFSYLHWYQQKPGQPPKLLIFLASNLESGVPARFSGSGSGTDFTLNIHPVEEEDAATYYCQHSWELPLTFGAGTKLELKR
–	590 pM	0.4	Mouse 08A N59A (antibody, mouse IgG1, kappa, V domains shown, Mouse IgG1 / kappa; also called 80AFH; Mouse x [PD-1_H] mAb (Clone 1.08 N59A) IgG1 / Kappa) VH: QVQLQQPGAELVKPGASVKLSCKASGYTFTSYYLYWMKQRPGQGLEWIGGVNPSNGGTAFSEKFKSKATLTVDKSSSTAYMQLSSLTSEDSAVYYCTRRDSNYDGGFDYWGQGTTLTVSS VL: DIVLTQSPTSLAVSLGQRATISCRASKSVSTSGFSYLHWYQQKPGQPPKLLIFLASNLESGVPARFSGSGSGTDFTLNIHPVEEEDAATYYCQHSWELPLTFGAGTKLELKR
–	9600 pM	0.04	Mouse 08A N59Q (antibody, mouse IgG1, kappa, V domains shown, Mouse IgG1 / kappa; also called 38AFL; Mouse x [PD-1_H] mAb (Clone 1.08 N59Q) IgG1 / Kappa) VH: QVQLQQPGAELVKPGASVKLSCKASGYTFTSYYLYWMKQRPGQGLEWIGGVNPSNGGTQFSEKFKSKATLTVDKSSSTAYMQLSSLTSEDSAVYYCTRRDSNYDGGFDYWGQGTTLTVSS VL: DIVLTQSPTSLAVSLGQRATISCRASKSVSTSGFSYLHWYQQKPGQPPKLLIFLASNLESGVPARFSGSGSGTDFTLNIHPVEEEDAATYYCQHSWELPLTFGAGTKLELKR
